Source: patent US10052364B2, “Osteocalcin as a treatment for cognitive disorders” (THE TRUSTEES OF COLUMBIA UNIVERSITY IN THE CITY OF NEW YORK, priority 2013, dated 2018)

What was measured:
WT mice = assay: Contextual Fear Conditioning after acute hippocampal injection; format: in vivo, mouse; settings: for freezing behavior compared to controls, 24 hours after the initial shocks: 10 ng injected acutely in both hemispheres, n=4 per group
Description: FIG. 11. CREB activation by osteocalcin is functionally relevant. Contextual fear conditioning in 3.5 month old mice injected acutely with 10 ng recombinant uncarboxylated osteocalcin 24 hours prior to context exposure. 3 shocks of 0.55 mA were delivered to mice 1 min apart.
To determine whether these acute injections and corresponding activation of the CREB pathway are functionally relevant, Contextual Fear Conditioning (CFC), a hippocampus dependent task that assesses long term memory, was performed. Mice were injected acutely in both hemispheres with either PBS or 10 ng recombinant uncarboxylated osteocalcin.

[1] = tested on: mouse primary hindbrain neurons (MPHN); assay: Calcium flux in primary hindbrain neurons; format: cell-based; settings: MPHN treated with undercarboxylated or carboxylated osteocalcin
Description: For calcium imaging, primary hindbrain neurons seeded on 12 mm coverslips were allowed the appropriate time to form structural networks. These cultures were washed with HBSS and loaded with 2.5 μM FURA-2, AM calcium indicator for 45 minutes at room temperature, according to the manufacturer's protocol. Cells were then washed to remove excess indicator and incubated for 30 minutes to allow internalized esters to become de-esterified. 30 ng/ml of osteocalcin was prepared with the control buffer of 1×HBBS supplemented with 10 mM HEPES buffer and 2 mM CaCl2. Using a Zeiss microscope with a perfusion system, coverslips were first perfused with control and osteocalcin. After each stimulation, cells were depolarized with 50 mM KCl to determine the percentage of live cells being imaged. All treatments were recorded using two-photon laser scanning microscopy by Prairie Technologies and analyzed by Z axis profile plotting using ImageJ.
To determine if osteocalcin acts directly on neurons to modulate neurotransmitter synthesis, several types of assays were performed. First, brainstem and midbrain explants from WT and Gprc6a^−/− mice were generated. […] Third, to further confirm that osteocalcin signals in neurons of the hindbrain, calcium flux in MPHN treated with undercarboxylated or carboxylated osteocalcin (FIG. 3F) was measured. […]

[2] = tested on: neurons in the brain (WT brain sections); assay: Binding of biotinylated osteocalcin to brain sections (anti-biotin immunofluorescence, competition); design: species or system mouse
Description: FIG. 3. Osteocalcin binds to neurons in the brain. (A) Measurement of the total osteocalcin in 3 month-old Osteocalcin^−/− mice infused subcutaneously for 7 days with either uncarboxylated osteocalcin (300 ng/hour, right panel) or PBS (left panel). Osteocalcin levels were measured in bone, serum, and different parts of the brain (cortex, midbrain, hypothalamus, brainstem, and cerebellum). (B) Subcutaneous infusion of leptin ([…], right panel) or PBS (left panel) for 7 days in ob/ob mice. Leptin levels were measured in serum, cortex, midbrain, hypothalamus, brainstem, and cerebellum. (C) Binding of GST-biotin (30 μg/ml) (panel 1) and biotinylated osteocalcin (300 ng/ml) (panels 2-4) to the dorsal (DR) and median (MR) raphe nuclei of the brainstem (identified by anti-5-HT immunofluorescence), to the ventral tegmental area (VTA) of the midbrain (identified by anti-TH immunofluorescence), and to the CA3 and CA4 of the hippocampus (identified anatomically). […] Binding with GST-biotin, osteocalcin-biotinylated, and competition assays were performed on adjacent sections. (D) Expression of Tph2 and GAD 1 in brainstem, and Th in midbrain explants from WT and Gprc6a^−/− mice, treated with 10 ng/ml osteocalcin or vehicle. (E) Gene expression in WT primary hindbrain neuron cultures treated with 10 ng/ml osteocalcin or vehicle. (F) Calcium flux response of primary hindbrain cultured neurons to osteocalcin treatment. (G-H) Extracellular current recordings of (G) neurons of the dorsal raphe nucleus and (H) GABAergic interneurons of the brainstem treated with osteocalcin (10 ng/ml).
Brains from 8-week-old mice were snap-frozen in isopentane, and […] thick sections were prepared and desiccated overnight at 4° C. under vacuum. On the following day, sections were rehydrated in ice-cold binding buffer (50 mM TrisHCl [pH 7.4], 10 mM MgCl2, 0.1 mM EDTA and 0.1% BSA) for 15 min and incubated for 1 hr in the presence of biotinylated osteocalcin (3, 30, 300, 3000 ng/ml) or biotynylated recombinant GST as a control ([…]). After washing in harvesting buffer (50 mM Tris-HCl, pH 7.4), samples were fixed in 4% paraformaldehyde for 15 min, washed in PBS and incubated with goat anti-biotin antibody (1:1000, Vector laboratories) over night at 4° C. Signal was visualized by incubating with anti-goat IgG Cy-3 using Leica DM 5000B microscope (Leica). The binding assays were perform on adjacent sections for each conditions tested.
This accumulation in discrete regions of the brain raised the question of whether osteocalcin binds to specific neurons in the brain. This was tested by incubating sections of adult or embryonic (E18.5) WT brains with biotinylated undercarboxylated osteocalcin or GST-biotin alone (30 μg/ml), followed by immunofluorescence analysis using an anti-biotin antibody. […]

[3] = biotinylated undercarboxylated osteocalcin, WT brain sections

B1: uncarboxylated osteocalcin: Recombinant osteocalcin bacterially produced, cleaved from the GST subunit; completely undercarboxylated at all three sites (protein, listed as Homo sapiens)
chain: MRALTLLALLALAALCIAGQAGAKPSGAESSKGAAFVSKQEGSEVVKRPRRYLYQWLGAPVPYPDPLEPRREVCELNPDCDELADHIGFQEAYRRFYGPV
modifications: uncarboxylated
notes: Recombinant osteocalcin bacterially produced, cleaved from the GST subunit; completely undercarboxylated at all three sites
WT mice; 10 ng injected 24 hours prior to context exposure, 3.5 month old mice
  % freezing on Day 1: the same for both groups
WT mice
  freezing behavior compared to controls, 24 hours after the initial shocks: increased freezing behavior
WT mice; listed as recombinant uncarboxylated osteocalcin
  freezing behavior compared to controls, 24 hours after the initial shocks: increased freezing along with hyperexcitability
[1]
  calcium fluxes in primary hindbrain neurons: induced changes in calcium fluxes
[2]; [3]
  binding in the brainstem: bound to neurons of the raphe nuclei
  binding in the midbrain: bound to the ventral tegmental area and the substantia nigrae
[2]; biotinylated undercarboxylated osteocalcin, adult or E18.5 WT brain sections
  binding to neuronal populations of the brain: bound to several neuronal populations in the forebrain, midbrain, and brainstem
[2]; excess of unlabeled osteocalcin versus excess of GST
  specificity of binding in the midbrain and brainstem (competition): specific
